Experimental data as given in US20150368668A1 (RUTGERS THE STATE UNIVERSITY OF NEW JERSEY, published 2015).

B1: eE2(ΔHVR1) (residues 413-656, genotype J6) (other)
chain: LVNTNGSWHINRTALNCNDSLHTGFIASLFYTHSFNSSGCPERMSACRSIEAFRVGWGALQYEDNVTNPEDMRPYCWHYPPRQCGVVSAKTVCGPVYCFTPSPVVVGTTDRLGAPTYTWGENETDVFLLNSTRPPLGSWFGCTWMNSSGYTKTCGAPPCRTRADFNASTDLLCPTDCFRKHPDTTYLKCGSGPWLTPRCLIDYPYRLWHYPCTVNYTIFKIRMYVGGVEHRLTAACNFTRGDRC
modifications: glycosylated (SAXS sample)
notes: also called eE2(DHVR1); eE2 (DHVR1)
B2: full-length E2 ectodomain eE2 (residues 384-656, genotype J6), produced with a C-terminal protein-A tag and released by PreScission Protease (other)
chain: RTHTVGGSAAQTTGRLTSLFDMGPRQKIQLVNTNGSWHINRTALNCNDSLHTGFIASLFYTHSFNSSGCPERMSACRSIEAFRVGWGALQYEDNVTNPEDMRPYCWHYPPRQCGVVSAKTVCGPVYCFTPSPVVVGTTDRLGAPTYTWGENETDVFLLNSTRPPLGSWFGCTWMNSSGYTKTCGAPPCRTRADFNASTDLLCPTDCFRKHPDTTYLKCGSGPWLTPRCLIDYPYRLWHYPCTVNYTIFKIRMYVGGVEHRLTAACNFTRGDRC
modifications: N-linked glycans from GnTI- HEK293T cells; whether deglycosylated in the ELISAs is not stated
notes: Monomeric; also called eE2 (384-656)

How the values were obtained:
[1] = target: human CD81, cellular receptor on the cells infected with HCVcc (human) (UniProt P60033); assay: cell-based or functional assay
Chain of human CD81, cellular receptor on the cells infected with HCVcc (human) (P60033 whole entry, the tested form may be a part): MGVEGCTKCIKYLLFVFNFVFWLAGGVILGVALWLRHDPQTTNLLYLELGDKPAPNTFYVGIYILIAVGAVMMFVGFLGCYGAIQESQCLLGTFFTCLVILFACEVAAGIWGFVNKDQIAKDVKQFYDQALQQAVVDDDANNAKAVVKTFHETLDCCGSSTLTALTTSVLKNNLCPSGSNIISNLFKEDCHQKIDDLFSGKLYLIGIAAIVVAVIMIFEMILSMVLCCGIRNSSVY

[2] = target: T1, Human CD81-LEL (residues 112-202), protein-A tag cleaved by PreScission Protease (human, UniProt P60033 112-202); assay: SAXS envelope of the complex
T1 construct: range 112-202
T1 sequence: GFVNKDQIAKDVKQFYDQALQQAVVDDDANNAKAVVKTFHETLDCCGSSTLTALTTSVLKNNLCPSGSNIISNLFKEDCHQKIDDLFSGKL

[3] = target: T1, Human CD81-LEL (residues 112-202), …; assay: ELISA, CD81-LEL coated, detection with 2A12 and anti-mouse-HRP

Molecule | 50% blocking efficiency, HCVcc focus forming units [1] | other results
purified eE2 (J6 genotype 2a E2 ectodomain aa 384-664, released from the Fc tag by thrombin) (from UniProt P26660 385-664) | 25 to 150 µg/mL | 
purified eE2-C656S (J6 E2 ectodomain aa 384-664 with C656S, released from the Fc tag by thrombin) (from UniProt P26660 385-664) | 25 to 150 µg/mL | 
B1 |  | binding result [2]: binds
B2 |  | binding result [3]: binds
